From publication PMC5167418, “A Novel Functional Domain of Tab2 Involved in the Interaction with Estrogen Receptor Alpha in Breast Cancer Cells” (PLoS ONE, 2016)

Tests used:
Recombinant human ERα [1] = target: T1, Recombinant human ERα (human, UniProt P03372 1-595)
T1 construct: recombinant human ERα, bought; also called recombinant hERα; source: bought: Life Technologies
T1 sequence (looked up): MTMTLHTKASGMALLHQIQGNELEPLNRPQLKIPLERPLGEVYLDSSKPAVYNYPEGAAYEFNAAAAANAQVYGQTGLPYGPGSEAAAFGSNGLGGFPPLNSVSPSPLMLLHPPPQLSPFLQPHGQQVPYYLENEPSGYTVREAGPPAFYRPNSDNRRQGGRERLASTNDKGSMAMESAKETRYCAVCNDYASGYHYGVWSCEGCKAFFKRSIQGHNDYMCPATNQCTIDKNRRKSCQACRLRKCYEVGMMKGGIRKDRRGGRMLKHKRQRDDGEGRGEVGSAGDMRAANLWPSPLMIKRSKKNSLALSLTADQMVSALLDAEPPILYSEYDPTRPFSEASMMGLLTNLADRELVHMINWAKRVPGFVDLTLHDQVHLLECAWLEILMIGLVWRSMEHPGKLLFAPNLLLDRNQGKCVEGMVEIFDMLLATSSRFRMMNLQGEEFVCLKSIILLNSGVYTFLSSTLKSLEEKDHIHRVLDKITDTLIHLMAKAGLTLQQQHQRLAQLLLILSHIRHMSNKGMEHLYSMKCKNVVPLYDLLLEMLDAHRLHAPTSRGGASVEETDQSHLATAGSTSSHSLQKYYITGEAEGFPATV

Recombinant human ERα [2] = target: T1, Recombinant human ERα; assay: pull-down; competition screening: MBP-Tab2(406–531) and recombinant hERα (1 nM) with or without in vitro translated fragments of Tab2(406–531); the pair that is blocked; conditions: both partners purified
Recombinant human ERα [3] = target: T1, Recombinant human ERα; assay: pull-down; competition: 10 μg MBP-Tab2(406–531) preincubated 1 h at 4°C with synthetic Tab2 peptides (10 μM each, or Tab2-pept3 100 nM to 10 μM), then recombinant hERα (1 nM) 1.5 h at 4°C, amylose resin, immunoblot; conditions: both partners purified

TAT-Tab2-pept3 (from UniProt Q9NYJ8 480-496) (peptide)
proliferation (bromo-deoxyuridine incorporation) of MCF7 TamR cells in 1 μM 4OHT, peptide 1 to 100 μM, 24 h; the peptide is meant to interfere with Tab2/ERα (Recombinant human ERα [1]): 50 to 70 µM

B1: MBP-Tab2(406–531) (domain or fragment, human, UniProt Q9NYJ8 406-531, looked up)
chain: TLFISTNSGASAASRNMSGQVSMGPAFIHHHPPKSRAIGNNSATSPRVVVTQPNTKYTFKITVSPNKPPAVSPGVVSPTFELTNLLNHPDHYVETENIQHLTDPTLAHVDRISETRKLSMGSDDAA
notes: human Tab2, aa 406–531 (central domain); also called MBP-406-531Tab2; 406-531Tab2; source: bacteria, purified MBP fusion (pMALc2)
binding result (Recombinant human ERα [2]): binds

B2: Tab2-pept3 (peptide, UniProt Q9NYJ8 480-496, looked up)
peptide: VVSPTFELTNLLNHPDH
notes: 17-aa synthetic peptide mimicking aa; 480–496 of human Tab2, a portion of Fragment 4; includes the LTNLL motif; also called Tab2 mimic peptide; SRID peptide; source: synthetic peptide (microwave-assisted synthesis, RP-HPLC purified)
binding result (Recombinant human ERα [3]): binds
